Assay results as given in PMC4403811, “Efficient Cargo Delivery into Adult Brain Tissue Using Short Cell-Penetrating Peptides” (PLoS ONE, 2015).
Where no end group is shown, it is not given here.

Columns and labels:
[1] = tested on: adult zebrafish brain (telencephalic hemisphere); test: Peptide translocation area in the telencephalon after CVMI (fluorescein IHC); conditions: 5(6)-carboxyfluorescein-labelled peptide, fluorescein IHC at 1 dpi, n = 3, mean ± s.e.m.
Protocol: (§1) Cerebroventricular microinjections (CVMI) were executed as described in [7, 8]. Fish were anesthetized using MESAB (0.01%) and an incision placed above the optic tectum with a fine needle (Becton Dickinson Biosciences). Through this hole a glass capillary is inserted and the liquid disperses evenly throughout the cerebroventricular fluid upon high pressure injection.
(§2) Fish were sacrificed 1 day post injection and heads fixed over night at 4°C in 2% PFA. Thereafter heads were transferred to 20% Sucrose-EDTA in […] phosphate buffer, pH 7.5. For cryosectioning embedding in Sucrose(20%)-Gelatine (7.5%) on dry ice was done and heads stored at -80°C. 12 μm cryosections were cut using a cryostat microtome and stored at -20°C.
(§3) Stainings were performed as previously described in [36, 43]. Yet after the first washing step a 6 min citrate buffer treatment at 85°C was done. Primary antibodies were sheep anti-fluorescein AP (1:4000, Roche), mouse anti-PCNA (1:500, Dako Cyto) and rabbit anti L-Plastin (Lcp1, 1:7500, a kind gift from Michael Redd, University of Utah, Salt Lake City, UT, USA), they were diluted in PBS. They were incubated at 4°C overnight and secondary antibodies for 30 min at room temperature. Secondary antibodies were Alexa anti-rabbit and anti-mouse 488, 555 (1:500, Molecular probes). FastRed stainings were carried out using Fast Red TR/Naphtol AS-MX tablets (Sigma), according to manufacturer's instructions. Lastly sections were washed using PBSTx and mounted. All immunohistochemical stainings were done on at least five individuals.
(§4) Images were acquired using an inverted Zeiss AxioImager Z1. Only sections between the caudal end of the olfactory bulb and anterior commissure were counted. The quantification of the average translocation range was done using the AxioVision free hand surface area measurement tool. The area showing anti-fluorescein staining in the left hemisphere was measured against the total this telencephalic hemisphere, based on color thresholds against control images. The statistical evaluation was performed using GraphPad Prism (Version 6.02) for one-way ANOVA followed by a Tukey’s post-hoc test and for Student’s T-Test. Error bars shown are the s.e.m. and asterisks indicate significance according to: *: p0.05, **: p0.01, ***: p0.001. p>0.05 is considered not significant.

[2] = tested on: adult zebrafish brain (telencephalon); test: L-Plastin immunohistochemistry for immune response (leukocytes/microglia) after peptide CVMI; conditions: for number of L-Plastin-positive cells per hemisphere per section: dose not printed in the block (heading: high doses), PBS-injected control 35 ±6, n = 3, mean ± s.e.m.
Protocol: as §1, §2, §3, §4

[3] = tested on: adult zebrafish brain (telencephalon); conditions: for number of TUNEL-positive (apoptotic) cells: CVMI 200 μM, 1 dpi, per telencephalic hemisphere per section, n = 3
Protocol: as §1, §2
TUNEL stainings of sections were carried out using the ApoTag Red In Situ apoptosis Detection Kit (Chemicon International). Stainings were performed according to manufacturer’s instructions and positive and negative controls were included.
as §4

[4] = tested on: adult zebrafish brain (telencephalic hemispheres); test: Relative fluorescence levels in the telencephalic hemispheres after CVMI (surface plots); conditions: CVMI 100 μM; for relative fluorescence levels in the telencephalic hemispheres (level of peptide translocated to deep tissues): Fast-Red staining of cryosections, compared to control PolyD
Protocol: as §1, §2, §3
(§5) Images were acquired using an inverted Zeiss AxioImager Z1. Only sections between the caudal end of the olfactory bulb and anterior commissure were counted. The quantification of the average translocation range was done using the AxioVision free hand surface area measurement tool. The area showing anti-fluorescein staining in the left hemisphere was measured against the total this telencephalic hemisphere, based on color thresholds against control images. […]

[5] = tested on: adult zebrafish brain (ventricular progenitor cells); conditions: CVMI 200 μM, PCNA IHC, n = 3, mean ± s.e.m.
Protocol: as §1, §2
Stainings were performed as previously described in [36, 43]. Yet after the first washing step a 6 min citrate buffer treatment at 85°C was done. […]
as §5

[6] = injection concentration 100 μM, stained area vs total hemisphere
[7] = CVMI at 100 μM, 150 μM and 200 μM (all doses tested), n = 4

Row | Substance | average area of peptide translocation in one telencephalic hemisphere [1, 6] | number of L-Plastin-positive cells per hemisphere per section ([2]; CVMI) | number of TUNEL-positive (apoptotic) cells [3] | relative fluorescence levels in the telencephalic hemispheres (level of peptide translocated to deep tissues) [4] | average area of peptide translocation in one telencephalic hemisphere ([1]; injection concentration 200 μM) | immune response (L-Plastin-positive cells) compared to PolyD control [2, 7] | maximum concentration usable without activating the immune system ([2]; CVMI, doses tested 100, 150, 200 μM, L-Plastin IHC) | ventricularly proliferating progenitor cells (PCNA+ cells per telencephalic hemisphere section) [5] | cell death response (TUNEL-positive cells) compared to PolyD control [3, 7] | maximum concentration usable without any cell death response ([3]; CVMI, doses tested 100, 150, 200 μM, TUNEL) | effectiveness of penetration relative to Trans (relative fluorescence) ([4]; PolyR versus Trans)
1 | DDDDDDDDD ({5(6)‑carboxyfluorescein}-DDDDDDDDD) [PolyD, Poly-Aspartic Acid] | did not show any penetration | do not alter the number of leukocytes/microglia | did not result in any increase in the number of apoptotic cells | no translocation | – | – | – | – | – | – | –
2 | RKKRRQRRR [Tat] | 27 ±13% | – | – | – | 63 ± 11% | – | – | – | – | – | –
3 | RPARPAR ({5(6)‑carboxyfluorescein}-RPARPAR) [CendRP] | did not show any penetration | – | – | – | – | – | – | – | – | – | –
4 | RRRRRRRRR [PolyR, Poly-Arginine] | 70 ± 4% | do not alter the number of leukocytes/microglia | unchanged levels of TUNEL-positive cells | significantly elevated levels of penetration | 70 ± 5% | did not elicit any immune response | not causing an immune reaction at tested concentrations | not altered | did not elicit any cell death response | not toxic at such concentrations | 3 fold
